In US6600012:

Target: HLA.A2 on T2 mutant cells
Assay: T2 cell HLA.A2 upregulation assay, flow cytometry with MA2.1

- % Change in mean channel intensity: 48%
Binder: SAPDTRPAP (modifications not checked) […, MUC-1 tandem repeat synthetic 9 mer]
